According to patent publication US20150017657A1, “ASSAY AND METHOD FOR IDENTIFYING COMPOUNDS THAT INHIBIT EXCITOTOXIC SIGNALS” (THE UNIVERSITY OF SYDNEY, priority 2011, published 2015):
No end group written: not given here.

Target: T1, Tau protein bound to Fyn protein (N-GFP-Fyn / C-GFP-Tau) (Homo sapiens, UniProt P06241)
T1 construct: A nucleic acid encoding amino acids 83-145 of human Fyn was cloned into the N-GFP-pLVX vector; N-GFP (GFP aa 1-158) with GGSG linker and XbaI-encoded SR; expressed in transfected cells; host or cells: COS-7 cells, lentiviral pLVX constructs, stably expressed
Experiment: split-GFP reassembly assay of Tau/Fyn binding in transfected COS-7 cells
Assay type: cell-based
Conditions: 200 nM peptide, 1 hour at 37 degree Celsius; COS-7 cells expressing N-GFP-Fyn and N-terminal C-GFP-Tau; plate reader or fluorescence microscope (FIG. 5)
Source text: Lentiviruses containing either combination of constructs, i.e. N-terminal C-GFP fused to Tau and N-GFP fused to Fyn, or C-terminal C-GFP fused to Tau and N-GFP fused to Fyn, were then generated using standard protocols (e.g. Krupka et al., Plasmid, 2010, 63(3):155-60) and stably expressed in COS-7 cells.
However, transfection of constructs encoding N-terminal C-GFP fused to Tau and N-GFP fused to Fyn did result in green fluorescing cells (FIG. 5).
Cells generated by the methods described in Example 1 were grown till confluent in 96-well plates and then the fluorescence was measured in a 96-well plate reader (Omega, BMG) or by via fluorescence microscope. The cells were then incubated with 200 nM of the Tat-7PXXP peptide for 1 hour at 37 degree Celsius. The fluorescence was again measured in a 96-well plate reader (Omega, BMG) or via a fluorescence microscope.

T1 sequence (P06241 83-145): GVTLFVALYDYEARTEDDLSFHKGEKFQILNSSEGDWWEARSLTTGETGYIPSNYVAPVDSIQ

## YGRKKRRQRRRTPPKSPSS [Tat-7PXXP]
  fluorescence of the transfected cells: negligible
